B1: Speckle-type POZ protein (Homo sapiens), O43791 (parent)
chain: MSRVPSPPPPAEMSSGPVAESWCYTQIKVVKFSYMWTINNFSFCREEMGEVIKSSTFSSGANDKLKWCLRVNPKGLDEESKDYLSLYLLLVSCPKSEVRAKFKFSILNAKGEETKAMESQRAYRFVQGKDWGFKKFIRRDFLLDEANGLLPDDKLTLFCEVSVVQDSVNISGQNTMNMVKVPECRLADELGGLWENSRFTDCCLCVAGQEFQAHKAILAARSPVFSAMFEHEMEESKKNRVEINDVEPEVFKEMMCFIYTGKAPNLDKMADDLLAAADKYALERLKVMCEDALCSNLSVENAAEILILADLHSADQLKTQAVDFINYHASDVLETSGWKSMVVSHPHLVAEAYRSLASAQCPFLGPPRKRLKQS

Variants of: B1
Conditions: with dll3_human DLL3, Q9NYJ7

Row | effect of a mutation on the interaction | Variant
1 | with no effect | MSRVPSPPPPAEMSSGPVAESWCYTQIKVVKFSYMWTINNFSFCREEMGEVIKSSTFSSGANDKLKWCLRVNPKGLDEESKDYLSLCLLLVSCPKSEVRAKFKFSILNAKGEETKAMESQRAYRFVQGKDWGFKKFIRRDFLLDEANGLLPDDKLTLFCEVSVVQDSVNISGQNTMNMVKVPECRLADELGGLWENSRFTDCCLCVAGQEFQAHKAILAARSPVFSAMFEHEMEESKKNRVEINDVEPEVFKEMMCFIYTGKAPNLDKMADDLLAAADKYALERLKVMCEDALCSNLSVENAAEILILADLHSADQLKTQAVDFINYHASDVLETSGWKSMVVSHPHLVAEAYRSLASAQCPFLGPPRKRLKQS [Y87C]

Variants of: B1
Conditions: with duox2_human DUOX2, Q9NRD8
Sequence of duox2_human DUOX2, Q9NRD8 (Q9NRD8 whole entry): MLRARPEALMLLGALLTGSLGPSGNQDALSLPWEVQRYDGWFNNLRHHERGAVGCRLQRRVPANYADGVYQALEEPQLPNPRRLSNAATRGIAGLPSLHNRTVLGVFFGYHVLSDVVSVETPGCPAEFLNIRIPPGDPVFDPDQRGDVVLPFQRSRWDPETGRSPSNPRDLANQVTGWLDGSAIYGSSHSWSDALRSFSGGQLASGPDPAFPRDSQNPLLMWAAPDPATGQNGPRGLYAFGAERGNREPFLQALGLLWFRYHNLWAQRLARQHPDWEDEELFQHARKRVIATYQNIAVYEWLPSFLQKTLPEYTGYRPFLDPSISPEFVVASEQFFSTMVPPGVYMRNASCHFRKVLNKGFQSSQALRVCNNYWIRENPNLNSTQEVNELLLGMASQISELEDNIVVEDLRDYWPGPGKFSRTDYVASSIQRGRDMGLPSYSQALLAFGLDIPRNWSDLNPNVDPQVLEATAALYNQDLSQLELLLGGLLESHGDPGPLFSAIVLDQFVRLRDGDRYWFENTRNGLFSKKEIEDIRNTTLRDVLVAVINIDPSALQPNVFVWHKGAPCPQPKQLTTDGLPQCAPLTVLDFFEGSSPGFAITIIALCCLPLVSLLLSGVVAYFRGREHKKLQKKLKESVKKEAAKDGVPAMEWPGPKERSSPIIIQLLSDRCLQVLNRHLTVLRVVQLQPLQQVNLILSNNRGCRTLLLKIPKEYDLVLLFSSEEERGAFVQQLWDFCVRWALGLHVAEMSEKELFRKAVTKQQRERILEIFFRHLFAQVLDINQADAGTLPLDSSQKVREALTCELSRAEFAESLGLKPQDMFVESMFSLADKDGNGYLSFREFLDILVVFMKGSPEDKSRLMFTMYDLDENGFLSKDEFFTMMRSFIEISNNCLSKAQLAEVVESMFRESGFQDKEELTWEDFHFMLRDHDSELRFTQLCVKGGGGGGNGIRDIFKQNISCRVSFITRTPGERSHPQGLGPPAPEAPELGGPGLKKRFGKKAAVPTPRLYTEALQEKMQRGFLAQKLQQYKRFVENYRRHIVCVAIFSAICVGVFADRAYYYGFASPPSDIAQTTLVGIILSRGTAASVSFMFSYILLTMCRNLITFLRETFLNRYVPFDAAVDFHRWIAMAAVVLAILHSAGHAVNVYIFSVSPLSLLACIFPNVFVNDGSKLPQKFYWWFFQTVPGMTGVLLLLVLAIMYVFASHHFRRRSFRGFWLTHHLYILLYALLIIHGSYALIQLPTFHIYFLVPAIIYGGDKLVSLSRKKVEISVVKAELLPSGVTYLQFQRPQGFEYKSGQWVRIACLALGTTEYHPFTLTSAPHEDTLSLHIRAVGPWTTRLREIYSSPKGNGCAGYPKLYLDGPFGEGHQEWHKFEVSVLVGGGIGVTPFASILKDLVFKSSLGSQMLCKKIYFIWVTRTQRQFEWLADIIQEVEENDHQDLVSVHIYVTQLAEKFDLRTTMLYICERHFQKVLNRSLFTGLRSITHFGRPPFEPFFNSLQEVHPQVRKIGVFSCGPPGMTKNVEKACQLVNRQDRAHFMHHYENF

Row | effect of a mutation on the interaction | Variant
2 | with no effect | MSRVPSPPPPAEMSSGPVAESWCYTQIKVVKFSYMWTINNFSFCREEMGEVIKSSTFSSGANDKLKWCLRVNPKGLDEESKDYLSLCLLLVSCPKSEVRAKFKFSILNAKGEETKAMESQRAYRFVQGKDWGFKKFIRRDFLLDEANGLLPDDKLTLFCEVSVVQDSVNISGQNTMNMVKVPECRLADELGGLWENSRFTDCCLCVAGQEFQAHKAILAARSPVFSAMFEHEMEESKKNRVEINDVEPEVFKEMMCFIYTGKAPNLDKMADDLLAAADKYALERLKVMCEDALCSNLSVENAAEILILADLHSADQLKTQAVDFINYHASDVLETSGWKSMVVSHPHLVAEAYRSLASAQCPFLGPPRKRLKQS [Y87C]

Variants of: B1
Conditions: with e2f1_human E2F1, Q01094
Sequence of e2f1_human E2F1, Q01094 (Q01094 whole entry): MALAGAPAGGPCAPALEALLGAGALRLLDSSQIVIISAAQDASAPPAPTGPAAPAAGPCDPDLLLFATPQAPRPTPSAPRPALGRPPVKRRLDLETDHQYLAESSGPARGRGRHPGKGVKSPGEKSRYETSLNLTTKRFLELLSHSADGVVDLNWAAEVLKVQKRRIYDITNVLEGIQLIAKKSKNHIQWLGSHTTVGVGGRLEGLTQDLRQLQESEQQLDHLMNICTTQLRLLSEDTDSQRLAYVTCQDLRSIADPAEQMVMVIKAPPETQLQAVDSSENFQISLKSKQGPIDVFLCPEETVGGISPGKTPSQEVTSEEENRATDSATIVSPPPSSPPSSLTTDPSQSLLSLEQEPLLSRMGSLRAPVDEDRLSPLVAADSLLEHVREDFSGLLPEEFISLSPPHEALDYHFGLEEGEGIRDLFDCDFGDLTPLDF

Row | effect of a mutation on the interaction | Variant
3 | with no effect | MSRVPSPPPPAEMSSGPVAESWCYTQIKVVKFSYMWTINNFSFCREEMGEVIKSSTFSSGANDKLKWCLRVNPKGLDEESKDYLSLCLLLVSCPKSEVRAKFKFSILNAKGEETKAMESQRAYRFVQGKDWGFKKFIRRDFLLDEANGLLPDDKLTLFCEVSVVQDSVNISGQNTMNMVKVPECRLADELGGLWENSRFTDCCLCVAGQEFQAHKAILAARSPVFSAMFEHEMEESKKNRVEINDVEPEVFKEMMCFIYTGKAPNLDKMADDLLAAADKYALERLKVMCEDALCSNLSVENAAEILILADLHSADQLKTQAVDFINYHASDVLETSGWKSMVVSHPHLVAEAYRSLASAQCPFLGPPRKRLKQS [Y87C]

Variants of: B1
Conditions: with e2f2_human E2F2, Q14209

Row | effect of a mutation on the interaction | Variant
4 | with no effect | MSRVPSPPPPAEMSSGPVAESWCYTQIKVVKFSYMWTINNFSFCREEMGEVIKSSTFSSGANDKLKWCLRVNPKGLDEESKDYLSLCLLLVSCPKSEVRAKFKFSILNAKGEETKAMESQRAYRFVQGKDWGFKKFIRRDFLLDEANGLLPDDKLTLFCEVSVVQDSVNISGQNTMNMVKVPECRLADELGGLWENSRFTDCCLCVAGQEFQAHKAILAARSPVFSAMFEHEMEESKKNRVEINDVEPEVFKEMMCFIYTGKAPNLDKMADDLLAAADKYALERLKVMCEDALCSNLSVENAAEILILADLHSADQLKTQAVDFINYHASDVLETSGWKSMVVSHPHLVAEAYRSLASAQCPFLGPPRKRLKQS [Y87C]

Variants of: B1
Conditions: with e2f3_human E2F3, O00716
Sequence of e2f3_human E2F3, O00716 (O00716 whole entry): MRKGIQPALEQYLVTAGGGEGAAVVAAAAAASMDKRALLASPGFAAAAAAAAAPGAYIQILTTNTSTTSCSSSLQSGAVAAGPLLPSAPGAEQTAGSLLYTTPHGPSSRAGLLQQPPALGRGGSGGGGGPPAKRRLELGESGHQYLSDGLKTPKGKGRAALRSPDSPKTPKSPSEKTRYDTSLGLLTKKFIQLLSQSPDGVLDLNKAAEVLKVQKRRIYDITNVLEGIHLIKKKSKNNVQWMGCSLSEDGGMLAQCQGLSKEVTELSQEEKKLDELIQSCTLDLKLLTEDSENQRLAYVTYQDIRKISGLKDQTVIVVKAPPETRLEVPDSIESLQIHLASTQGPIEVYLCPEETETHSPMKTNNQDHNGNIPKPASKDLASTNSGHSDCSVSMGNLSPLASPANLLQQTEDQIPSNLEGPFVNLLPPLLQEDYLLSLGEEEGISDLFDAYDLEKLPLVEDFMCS

Row | effect of a mutation on the interaction | Variant
5 | with no effect | MSRVPSPPPPAEMSSGPVAESWCYTQIKVVKFSYMWTINNFSFCREEMGEVIKSSTFSSGANDKLKWCLRVNPKGLDEESKDYLSLCLLLVSCPKSEVRAKFKFSILNAKGEETKAMESQRAYRFVQGKDWGFKKFIRRDFLLDEANGLLPDDKLTLFCEVSVVQDSVNISGQNTMNMVKVPECRLADELGGLWENSRFTDCCLCVAGQEFQAHKAILAARSPVFSAMFEHEMEESKKNRVEINDVEPEVFKEMMCFIYTGKAPNLDKMADDLLAAADKYALERLKVMCEDALCSNLSVENAAEILILADLHSADQLKTQAVDFINYHASDVLETSGWKSMVVSHPHLVAEAYRSLASAQCPFLGPPRKRLKQS [Y87C]

Variants of: B1
Conditions: with e2f5_human E2F5, Q15329
Sequence of e2f5_human E2F5, Q15329 (Q15329 whole entry): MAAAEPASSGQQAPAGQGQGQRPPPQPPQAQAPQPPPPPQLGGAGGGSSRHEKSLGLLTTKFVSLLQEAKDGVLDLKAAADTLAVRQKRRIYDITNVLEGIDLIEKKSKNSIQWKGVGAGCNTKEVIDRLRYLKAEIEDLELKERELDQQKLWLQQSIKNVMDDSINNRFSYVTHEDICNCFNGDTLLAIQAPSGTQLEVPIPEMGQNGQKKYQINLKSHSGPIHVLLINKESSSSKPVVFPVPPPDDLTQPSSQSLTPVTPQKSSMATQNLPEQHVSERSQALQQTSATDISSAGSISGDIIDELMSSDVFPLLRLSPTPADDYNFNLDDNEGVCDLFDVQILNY

Row | effect of a mutation on the interaction | Variant
6 | with no effect | MSRVPSPPPPAEMSSGPVAESWCYTQIKVVKFSYMWTINNFSFCREEMGEVIKSSTFSSGANDKLKWCLRVNPKGLDEESKDYLSLCLLLVSCPKSEVRAKFKFSILNAKGEETKAMESQRAYRFVQGKDWGFKKFIRRDFLLDEANGLLPDDKLTLFCEVSVVQDSVNISGQNTMNMVKVPECRLADELGGLWENSRFTDCCLCVAGQEFQAHKAILAARSPVFSAMFEHEMEESKKNRVEINDVEPEVFKEMMCFIYTGKAPNLDKMADDLLAAADKYALERLKVMCEDALCSNLSVENAAEILILADLHSADQLKTQAVDFINYHASDVLETSGWKSMVVSHPHLVAEAYRSLASAQCPFLGPPRKRLKQS [Y87C]

Variants of: B1
Conditions: with e2f6_human E2F6, O75461

Row | effect of a mutation on the interaction | Variant
7 | with no effect | MSRVPSPPPPAEMSSGPVAESWCYTQIKVVKFSYMWTINNFSFCREEMGEVIKSSTFSSGANDKLKWCLRVNPKGLDEESKDYLSLCLLLVSCPKSEVRAKFKFSILNAKGEETKAMESQRAYRFVQGKDWGFKKFIRRDFLLDEANGLLPDDKLTLFCEVSVVQDSVNISGQNTMNMVKVPECRLADELGGLWENSRFTDCCLCVAGQEFQAHKAILAARSPVFSAMFEHEMEESKKNRVEINDVEPEVFKEMMCFIYTGKAPNLDKMADDLLAAADKYALERLKVMCEDALCSNLSVENAAEILILADLHSADQLKTQAVDFINYHASDVLETSGWKSMVVSHPHLVAEAYRSLASAQCPFLGPPRKRLKQS [Y87C]

Variants of: B1
Conditions: with e2f8_human E2F8, A0AVK6

Row | effect of a mutation on the interaction | Variant
8 | with no effect | MSRVPSPPPPAEMSSGPVAESWCYTQIKVVKFSYMWTINNFSFCREEMGEVIKSSTFSSGANDKLKWCLRVNPKGLDEESKDYLSLCLLLVSCPKSEVRAKFKFSILNAKGEETKAMESQRAYRFVQGKDWGFKKFIRRDFLLDEANGLLPDDKLTLFCEVSVVQDSVNISGQNTMNMVKVPECRLADELGGLWENSRFTDCCLCVAGQEFQAHKAILAARSPVFSAMFEHEMEESKKNRVEINDVEPEVFKEMMCFIYTGKAPNLDKMADDLLAAADKYALERLKVMCEDALCSNLSVENAAEILILADLHSADQLKTQAVDFINYHASDVLETSGWKSMVVSHPHLVAEAYRSLASAQCPFLGPPRKRLKQS [Y87C]

Variants of: B1
Conditions: with if4e_human EIF4E

Row | effect of a mutation on the interaction | Variant
9 | with no effect | MSRVPSPPPPAEMSSGPVAESWCYTQIKVVKFSYMWTINNFSFCREEMGEVIKSSTFSSGANDKLKWCLRVNPKGLDEESKDYLSLCLLLVSCPKSEVRAKFKFSILNAKGEETKAMESQRAYRFVQGKDWGFKKFIRRDFLLDEANGLLPDDKLTLFCEVSVVQDSVNISGQNTMNMVKVPECRLADELGGLWENSRFTDCCLCVAGQEFQAHKAILAARSPVFSAMFEHEMEESKKNRVEINDVEPEVFKEMMCFIYTGKAPNLDKMADDLLAAADKYALERLKVMCEDALCSNLSVENAAEILILADLHSADQLKTQAVDFINYHASDVLETSGWKSMVVSHPHLVAEAYRSLASAQCPFLGPPRKRLKQS [Y87C]

Variants of: B1
Conditions: with epha7_human EPHA7, Q15375
Sequence of epha7_human EPHA7, Q15375 (Q15375 whole entry, looked up): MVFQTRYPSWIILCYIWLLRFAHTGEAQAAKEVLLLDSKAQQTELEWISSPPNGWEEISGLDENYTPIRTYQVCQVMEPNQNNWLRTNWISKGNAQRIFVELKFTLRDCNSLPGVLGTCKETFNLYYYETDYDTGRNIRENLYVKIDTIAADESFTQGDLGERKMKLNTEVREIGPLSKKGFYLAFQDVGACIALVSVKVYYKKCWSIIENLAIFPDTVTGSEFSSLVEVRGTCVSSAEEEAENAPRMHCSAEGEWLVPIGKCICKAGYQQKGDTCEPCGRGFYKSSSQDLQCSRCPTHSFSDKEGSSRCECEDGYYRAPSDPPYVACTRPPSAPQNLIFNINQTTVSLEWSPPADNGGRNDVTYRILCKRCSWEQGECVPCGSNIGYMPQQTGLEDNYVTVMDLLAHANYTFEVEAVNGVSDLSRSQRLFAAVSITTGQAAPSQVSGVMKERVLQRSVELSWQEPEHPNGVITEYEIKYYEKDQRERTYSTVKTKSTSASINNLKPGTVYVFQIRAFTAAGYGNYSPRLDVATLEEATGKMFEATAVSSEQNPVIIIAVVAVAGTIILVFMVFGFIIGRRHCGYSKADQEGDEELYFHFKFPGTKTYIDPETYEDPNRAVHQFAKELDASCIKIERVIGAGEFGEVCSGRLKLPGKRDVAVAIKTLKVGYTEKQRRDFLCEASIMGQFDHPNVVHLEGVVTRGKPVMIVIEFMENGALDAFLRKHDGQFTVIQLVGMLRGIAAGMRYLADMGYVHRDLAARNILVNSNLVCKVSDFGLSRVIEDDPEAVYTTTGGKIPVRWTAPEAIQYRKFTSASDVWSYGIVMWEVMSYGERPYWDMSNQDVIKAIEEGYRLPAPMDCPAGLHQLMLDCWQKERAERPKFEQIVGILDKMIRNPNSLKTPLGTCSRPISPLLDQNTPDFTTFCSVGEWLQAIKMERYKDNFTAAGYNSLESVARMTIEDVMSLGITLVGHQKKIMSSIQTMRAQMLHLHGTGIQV

Row | effect of a mutation on the interaction | Variant
10 | with no effect | MSRVPSPPPPAEMSSGPVAESWCYTQIKVVKFSYMWTINNFSFCREEMGEVIKSSTFSSGANDKLKWCLRVNPKGLDEESKDYLSLCLLLVSCPKSEVRAKFKFSILNAKGEETKAMESQRAYRFVQGKDWGFKKFIRRDFLLDEANGLLPDDKLTLFCEVSVVQDSVNISGQNTMNMVKVPECRLADELGGLWENSRFTDCCLCVAGQEFQAHKAILAARSPVFSAMFEHEMEESKKNRVEINDVEPEVFKEMMCFIYTGKAPNLDKMADDLLAAADKYALERLKVMCEDALCSNLSVENAAEILILADLHSADQLKTQAVDFINYHASDVLETSGWKSMVVSHPHLVAEAYRSLASAQCPFLGPPRKRLKQS [Y87C]

Variants of: B1
Conditions: with ephb1_human EPHB1, P54762

Row | effect of a mutation on the interaction | Variant
11 | with no effect | MSRVPSPPPPAEMSSGPVAESWCYTQIKVVKFSYMWTINNFSFCREEMGEVIKSSTFSSGANDKLKWCLRVNPKGLDEESKDYLSLCLLLVSCPKSEVRAKFKFSILNAKGEETKAMESQRAYRFVQGKDWGFKKFIRRDFLLDEANGLLPDDKLTLFCEVSVVQDSVNISGQNTMNMVKVPECRLADELGGLWENSRFTDCCLCVAGQEFQAHKAILAARSPVFSAMFEHEMEESKKNRVEINDVEPEVFKEMMCFIYTGKAPNLDKMADDLLAAADKYALERLKVMCEDALCSNLSVENAAEILILADLHSADQLKTQAVDFINYHASDVLETSGWKSMVVSHPHLVAEAYRSLASAQCPFLGPPRKRLKQS [Y87C]

Variants of: B1
Conditions: with erbb3_human ERBB3, P21860

Row | effect of a mutation on the interaction | Variant
12 | with no effect | MSRVPSPPPPAEMSSGPVAESWCYTQIKVVKFSYMWTINNFSFCREEMGEVIKSSTFSSGANDKLKWCLRVNPKGLDEESKDYLSLCLLLVSCPKSEVRAKFKFSILNAKGEETKAMESQRAYRFVQGKDWGFKKFIRRDFLLDEANGLLPDDKLTLFCEVSVVQDSVNISGQNTMNMVKVPECRLADELGGLWENSRFTDCCLCVAGQEFQAHKAILAARSPVFSAMFEHEMEESKKNRVEINDVEPEVFKEMMCFIYTGKAPNLDKMADDLLAAADKYALERLKVMCEDALCSNLSVENAAEILILADLHSADQLKTQAVDFINYHASDVLETSGWKSMVVSHPHLVAEAYRSLASAQCPFLGPPRKRLKQS [Y87C]

Variants of: B1
Conditions: with erbb4_human ERBB4, Q15303

Row | effect of a mutation on the interaction | Variant
13 | with no effect | MSRVPSPPPPAEMSSGPVAESWCYTQIKVVKFSYMWTINNFSFCREEMGEVIKSSTFSSGANDKLKWCLRVNPKGLDEESKDYLSLCLLLVSCPKSEVRAKFKFSILNAKGEETKAMESQRAYRFVQGKDWGFKKFIRRDFLLDEANGLLPDDKLTLFCEVSVVQDSVNISGQNTMNMVKVPECRLADELGGLWENSRFTDCCLCVAGQEFQAHKAILAARSPVFSAMFEHEMEESKKNRVEINDVEPEVFKEMMCFIYTGKAPNLDKMADDLLAAADKYALERLKVMCEDALCSNLSVENAAEILILADLHSADQLKTQAVDFINYHASDVLETSGWKSMVVSHPHLVAEAYRSLASAQCPFLGPPRKRLKQS [Y87C]

Variants of: B1
Conditions: with esr1_human ESR1, P03372
Sequence of esr1_human ESR1, P03372 (P03372 whole entry): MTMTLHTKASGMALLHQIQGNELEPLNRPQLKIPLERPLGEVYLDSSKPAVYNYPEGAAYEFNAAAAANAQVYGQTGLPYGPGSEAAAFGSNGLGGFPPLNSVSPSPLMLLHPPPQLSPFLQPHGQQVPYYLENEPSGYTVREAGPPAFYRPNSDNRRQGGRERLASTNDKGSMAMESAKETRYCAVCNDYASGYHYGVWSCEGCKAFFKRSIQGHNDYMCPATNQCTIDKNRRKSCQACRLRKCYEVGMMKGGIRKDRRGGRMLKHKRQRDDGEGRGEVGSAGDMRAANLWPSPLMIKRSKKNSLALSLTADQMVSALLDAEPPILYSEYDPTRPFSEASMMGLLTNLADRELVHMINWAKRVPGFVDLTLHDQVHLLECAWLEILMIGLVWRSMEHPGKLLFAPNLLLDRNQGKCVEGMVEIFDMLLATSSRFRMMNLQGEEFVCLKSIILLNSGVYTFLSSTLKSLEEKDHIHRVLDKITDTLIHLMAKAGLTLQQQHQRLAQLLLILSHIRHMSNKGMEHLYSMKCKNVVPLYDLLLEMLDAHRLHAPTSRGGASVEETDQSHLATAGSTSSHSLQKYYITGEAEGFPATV

Row | effect of a mutation on the interaction | Variant
14 | with no effect | MSRVPSPPPPAEMSSGPVAESWCYTQIKVVKFSYMWTINNFSFCREEMGEVIKSSTFSSGANDKLKWCLRVNPKGLDEESKDYLSLCLLLVSCPKSEVRAKFKFSILNAKGEETKAMESQRAYRFVQGKDWGFKKFIRRDFLLDEANGLLPDDKLTLFCEVSVVQDSVNISGQNTMNMVKVPECRLADELGGLWENSRFTDCCLCVAGQEFQAHKAILAARSPVFSAMFEHEMEESKKNRVEINDVEPEVFKEMMCFIYTGKAPNLDKMADDLLAAADKYALERLKVMCEDALCSNLSVENAAEILILADLHSADQLKTQAVDFINYHASDVLETSGWKSMVVSHPHLVAEAYRSLASAQCPFLGPPRKRLKQS [Y87C]

Variants of: B1
Conditions: with etv1_human ETV1, P50549
Sequence of etv1_human ETV1, P50549 (P50549 whole entry): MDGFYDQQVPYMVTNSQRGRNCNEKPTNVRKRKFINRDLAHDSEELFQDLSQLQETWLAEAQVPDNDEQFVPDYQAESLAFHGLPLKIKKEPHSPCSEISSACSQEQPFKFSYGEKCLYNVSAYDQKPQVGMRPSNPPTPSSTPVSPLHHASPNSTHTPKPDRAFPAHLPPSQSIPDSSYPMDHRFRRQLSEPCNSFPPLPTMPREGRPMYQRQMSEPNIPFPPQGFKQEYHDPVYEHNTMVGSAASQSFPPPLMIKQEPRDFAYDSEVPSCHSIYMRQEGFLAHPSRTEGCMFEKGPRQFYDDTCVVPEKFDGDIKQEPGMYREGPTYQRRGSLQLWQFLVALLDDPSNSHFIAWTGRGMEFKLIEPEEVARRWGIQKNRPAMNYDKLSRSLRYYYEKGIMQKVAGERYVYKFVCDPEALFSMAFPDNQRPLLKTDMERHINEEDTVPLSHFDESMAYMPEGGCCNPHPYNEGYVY

Row | effect of a mutation on the interaction | Variant
15 | with no effect | MSRVPSPPPPAEMSSGPVAESWCYTQIKVVKFSYMWTINNFSFCREEMGEVIKSSTFSSGANDKLKWCLRVNPKGLDEESKDYLSLCLLLVSCPKSEVRAKFKFSILNAKGEETKAMESQRAYRFVQGKDWGFKKFIRRDFLLDEANGLLPDDKLTLFCEVSVVQDSVNISGQNTMNMVKVPECRLADELGGLWENSRFTDCCLCVAGQEFQAHKAILAARSPVFSAMFEHEMEESKKNRVEINDVEPEVFKEMMCFIYTGKAPNLDKMADDLLAAADKYALERLKVMCEDALCSNLSVENAAEILILADLHSADQLKTQAVDFINYHASDVLETSGWKSMVVSHPHLVAEAYRSLASAQCPFLGPPRKRLKQS [Y87C]

Reference: IntAct's records for PubMed 35512704
